According to US20190170753A1:

Experiments:
[1] = biological target: Mut1T110N biotin labeled HCV core peptide (hepatitis C virus); assay: capture EIA; Ab 62.5 ng/mL; bt-peptide 500 ng/mL
[2] = biological target: C113T109N biotin labeled HCV core peptide (hepatitis C virus); assay: capture EIA; Ab 62.5 ng/mL; bt-peptide 500 ng/mL
[3] = biological target: 92-133 biotin labeled HCV core peptide (hepatitis C virus) (UniProt Q9WMX2); assay: capture EIA; Ab 62.5 ng/mL; bt-peptide 500 ng/mL
[4] = biological target: Mut6T110S biotin labeled HCV core peptide (hepatitis C virus); assay: capture EIA; Ab 62.5 ng/mL; bt-peptide 500 ng/mL
[5] = biological target: Mut1T110N biotin labeled HCV core peptide (hepatitis C virus); assay: capture EIA; Ab 15.625 ng/mL; bt-peptide 500 ng/mL
[6] = biological target: C113T109N biotin labeled HCV core peptide (hepatitis C virus); assay: capture EIA; Ab 15.625 ng/mL; bt-peptide 500 ng/mL
[7] = biological target: 92-133 biotin labeled HCV core peptide (hepatitis C virus) (UniProt Q9WMX2); assay: capture EIA; Ab 15.625 ng/mL; bt-peptide 500 ng/mL
[8] = biological target: Mut6T110S biotin labeled HCV core peptide (hepatitis C virus); assay: capture EIA; Ab 15.625 ng/mL; bt-peptide 500 ng/mL
[9] = biological target: Mut1T110N biotin labeled HCV core peptide (hepatitis C virus); assay: capture EIA; Ab 2000 ng/mL; bt-peptide 500 ng/mL
[10] = biological target: C113T109N biotin labeled HCV core peptide (hepatitis C virus); assay: capture EIA; Ab 2000 ng/mL; bt-peptide 500 ng/mL
[11] = biological target: 92-133 biotin labeled HCV core peptide (hepatitis C virus) (UniProt Q9WMX2); assay: capture EIA; Ab 2000 ng/mL; bt-peptide 500 ng/mL
[12] = biological target: Mut6T110S biotin labeled HCV core peptide (hepatitis C virus); assay: capture EIA; Ab 2000 ng/mL; bt-peptide 500 ng/mL
[13] = biological target: Mut1T110N biotin labeled HCV core peptide (hepatitis C virus); assay: capture EIA; Ab 3.906 ng/mL; bt-peptide 500 ng/mL
[14] = biological target: C113T109N biotin labeled HCV core peptide (hepatitis C virus); assay: capture EIA; Ab 3.906 ng/mL; bt-peptide 500 ng/mL
[15] = biological target: 92-133 biotin labeled HCV core peptide (hepatitis C virus) (UniProt Q9WMX2); assay: capture EIA; Ab 3.906 ng/mL; bt-peptide 500 ng/mL
[16] = biological target: Mut6T110S biotin labeled HCV core peptide (hepatitis C virus); assay: capture EIA; Ab 3.906 ng/mL; bt-peptide 500 ng/mL
[17] = biological target: Mut1T110N biotin labeled HCV core peptide (hepatitis C virus); assay: capture EIA; Ab 125 ng/mL; bt-peptide 500 ng/mL
[18] = biological target: C113T109N biotin labeled HCV core peptide (hepatitis C virus); assay: capture EIA; Ab 125 ng/mL; bt-peptide 500 ng/mL
[19] = biological target: 92-133 biotin labeled HCV core peptide (hepatitis C virus) (UniProt Q9WMX2); assay: capture EIA; Ab 125 ng/mL; bt-peptide 500 ng/mL
[20] = biological target: Mut6T110S biotin labeled HCV core peptide (hepatitis C virus); assay: capture EIA; Ab 125 ng/mL; bt-peptide 500 ng/mL
[21] = biological target: Mut1T110N biotin labeled HCV core peptide (hepatitis C virus); assay: capture EIA; Ab 1000 ng/mL; bt-peptide 500 ng/mL
[22] = biological target: C113T109N biotin labeled HCV core peptide (hepatitis C virus); assay: capture EIA; Ab 1000 ng/mL; bt-peptide 500 ng/mL
[23] = biological target: 92-133 biotin labeled HCV core peptide (hepatitis C virus) (UniProt Q9WMX2); assay: capture EIA; Ab 1000 ng/mL; bt-peptide 500 ng/mL
[24] = biological target: Mut6T110S biotin labeled HCV core peptide (hepatitis C virus); assay: capture EIA; Ab 1000 ng/mL; bt-peptide 500 ng/mL
[25] = biological target: Mut1T110N biotin labeled HCV core peptide (hepatitis C virus); assay: capture EIA; Ab 15.6 ng/mL; bt-peptide 500 ng/mL (summary of Table 7)
[26] = biological target: C113T109N biotin labeled HCV core peptide (hepatitis C virus); assay: as above
[27] = biological target: 92-133 biotin labeled HCV core peptide (hepatitis C virus) (UniProt Q9WMX2); assay: as above
[28] = biological target: Mut6T110S biotin labeled HCV core peptide (hepatitis C virus); assay: as above
[29] = biological target: Mut1T110N biotin labeled HCV core peptide (hepatitis C virus); assay: capture EIA; Ab 0.977 ng/mL; bt-peptide 500 ng/mL
[30] = biological target: C113T109N biotin labeled HCV core peptide (hepatitis C virus); assay: capture EIA; Ab 0.977 ng/mL; bt-peptide 500 ng/mL
[31] = biological target: 92-133 biotin labeled HCV core peptide (hepatitis C virus) (UniProt Q9WMX2); assay: capture EIA; Ab 0.977 ng/mL; bt-peptide 500 ng/mL
[32] = biological target: Mut6T110S biotin labeled HCV core peptide (hepatitis C virus); assay: capture EIA; Ab 0.977 ng/mL; bt-peptide 500 ng/mL
[33] = biological target: Mut1T110N biotin labeled HCV core peptide (hepatitis C virus); assay: capture EIA; Ab 7.813 ng/mL; bt-peptide 500 ng/mL
[34] = biological target: C113T109N biotin labeled HCV core peptide (hepatitis C virus); assay: capture EIA; Ab 7.813 ng/mL; bt-peptide 500 ng/mL
[35] = biological target: 92-133 biotin labeled HCV core peptide (hepatitis C virus) (UniProt Q9WMX2); assay: capture EIA; Ab 7.813 ng/mL; bt-peptide 500 ng/mL
[36] = biological target: Mut6T110S biotin labeled HCV core peptide (hepatitis C virus); assay: capture EIA; Ab 7.813 ng/mL; bt-peptide 500 ng/mL
[37] = biological target: Mut1T110N biotin labeled HCV core peptide (hepatitis C virus); assay: capture EIA; Ab 250 ng/mL; bt-peptide 500 ng/mL
[38] = biological target: C113T109N biotin labeled HCV core peptide (hepatitis C virus); assay: capture EIA; Ab 250 ng/mL; bt-peptide 500 ng/mL
[39] = biological target: 92-133 biotin labeled HCV core peptide (hepatitis C virus) (UniProt Q9WMX2); assay: capture EIA; Ab 250 ng/mL; bt-peptide 500 ng/mL
[40] = biological target: Mut6T110S biotin labeled HCV core peptide (hepatitis C virus); assay: capture EIA; Ab 250 ng/mL; bt-peptide 500 ng/mL
[41] = biological target: Mut1T110N biotin labeled HCV core peptide (hepatitis C virus); assay: capture EIA; Ab 500 ng/mL; bt-peptide 500 ng/mL
[42] = biological target: C113T109N biotin labeled HCV core peptide (hepatitis C virus); assay: capture EIA; Ab 500 ng/mL; bt-peptide 500 ng/mL
[43] = biological target: 92-133 biotin labeled HCV core peptide (hepatitis C virus) (UniProt Q9WMX2); assay: capture EIA; Ab 500 ng/mL; bt-peptide 500 ng/mL
[44] = biological target: Mut6T110S biotin labeled HCV core peptide (hepatitis C virus); assay: capture EIA; Ab 500 ng/mL; bt-peptide 500 ng/mL
[45] = biological target: Mut1T110N biotin labeled HCV core peptide (hepatitis C virus); assay: capture EIA; Ab 1.953 ng/mL; bt-peptide 500 ng/mL
[46] = biological target: C113T109N biotin labeled HCV core peptide (hepatitis C virus); assay: capture EIA; Ab 1.953 ng/mL; bt-peptide 500 ng/mL
[47] = biological target: 92-133 biotin labeled HCV core peptide (hepatitis C virus) (UniProt Q9WMX2); assay: capture EIA; Ab 1.953 ng/mL; bt-peptide 500 ng/mL
[48] = biological target: Mut6T110S biotin labeled HCV core peptide (hepatitis C virus); assay: capture EIA; Ab 1.953 ng/mL; bt-peptide 500 ng/mL
[49] = biological target: Mut1T110N biotin labeled HCV core peptide (hepatitis C virus); assay: capture EIA; Ab 31.25 ng/mL; bt-peptide 500 ng/mL
[50] = biological target: C113T109N biotin labeled HCV core peptide (hepatitis C virus); assay: capture EIA; Ab 31.25 ng/mL; bt-peptide 500 ng/mL
[51] = biological target: 92-133 biotin labeled HCV core peptide (hepatitis C virus) (UniProt Q9WMX2); assay: capture EIA; Ab 31.25 ng/mL; bt-peptide 500 ng/mL
[52] = biological target: Mut6T110S biotin labeled HCV core peptide (hepatitis C virus); assay: capture EIA; Ab 31.25 ng/mL; bt-peptide 500 ng/mL

Question: How did the signal at 492 nm [1] turn out when C11-3 (ABT-4) monoclonal antibody was run?
Answer: 0.155 A492

Question: What about the signal at 492 nm [2] of the same substance?
Answer: 0.202 A492

Question: What about the signal at 492 nm [3] of the same substance?
Answer: 1.92 A492

Question: And the signal at 492 nm [4]?
Answer: 2.11 A492

Question: And the signal at 492 nm [5]?
Answer: 0.11 A492

Question: What about the signal at 492 nm [6] of the same substance?
Answer: 0.116 A492

Question: And the signal at 492 nm [7]?
Answer: 1.01 A492

Question: What about the signal at 492 nm [8] of the same substance?
Answer: 0.807 A492

Question: And the signal at 492 nm [9]?
Answer: 0.0915 A492

Question: And the signal at 492 nm [10]?
Answer: 0.0707 A492

Question: What about the signal at 492 nm [11] of the same substance?
Answer: 1.45 A492

Question: What about the signal at 492 nm [12] of the same substance?
Answer: 1.73 A492

Question: And the signal at 492 nm [13]?
Answer: 0.079 A492

Question: And the signal at 492 nm [14]?
Answer: 0.0833 A492

Question: What about the signal at 492 nm [15] of the same substance?
Answer: 0.183 A492

Question: What about the signal at 492 nm [16] of the same substance?
Answer: 0.227 A492

Question: And the signal at 492 nm [17]?
Answer: 0.127 A492

Question: And the signal at 492 nm [18]?
Answer: 0.147 A492

Question: What about the signal at 492 nm [19] of the same substance?
Answer: 1.83 A492

Question: What about the signal at 492 nm [20] of the same substance?
Answer: 2.02 A492

Question: What about the signal at 492 nm [21] of the same substance?
Answer: 0.0721 A492

Question: And the signal at 492 nm [22]?
Answer: 0.0806 A492

Question: And the signal at 492 nm [23]?
Answer: 1.87 A492

Question: And the signal at 492 nm [24]?
Answer: 2.15 A492

Question: And the signal at 492 nm [25]?
Answer: 0.11 A492

Question: What about the signal at 492 nm [26] of the same substance?
Answer: 0.116 A492

Question: And the signal at 492 nm [27]?
Answer: 1.01 A492

Question: And the signal at 492 nm [28]?
Answer: 0.807 A492

Question: And the signal at 492 nm [29]?
Answer: 0.0755 A492

Question: What about the signal at 492 nm [30] of the same substance?
Answer: 0.104 A492

Question: What about the signal at 492 nm [31] of the same substance?
Answer: 0.116 A492

Question: What about the signal at 492 nm [32] of the same substance?
Answer: 0.101 A492

Question: And the signal at 492 nm [33]?
Answer: 0.0966 A492

Question: What about the signal at 492 nm [34] of the same substance?
Answer: 0.119 A492

Question: What about the signal at 492 nm [35] of the same substance?
Answer: 0.562 A492

Question: What about the signal at 492 nm [36] of the same substance?
Answer: 0.344 A492

Question: And the signal at 492 nm [37]?
Answer: 0.0857 A492

Question: What about the signal at 492 nm [38] of the same substance?
Answer: 0.0963 A492

Question: What about the signal at 492 nm [39] of the same substance?
Answer: 1.68 A492

Question: And the signal at 492 nm [40]?
Answer: 1.83 A492

Question: What about the signal at 492 nm [41] of the same substance?
Answer: 0.0765 A492

Question: What about the signal at 492 nm [42] of the same substance?
Answer: 0.0882 A492

Question: What about the signal at 492 nm [43] of the same substance?
Answer: 1.95 A492

Question: What about the signal at 492 nm [44] of the same substance?
Answer: 2.24 A492

Question: What about the signal at 492 nm [45] of the same substance?
Answer: 0.0854 A492

Question: What about the signal at 492 nm [46] of the same substance?
Answer: 0.114 A492

Question: And the signal at 492 nm [47]?
Answer: 0.134 A492

Question: And the signal at 492 nm [48]?
Answer: 0.0964 A492

Question: What about the signal at 492 nm [49] of the same substance?
Answer: 0.107 A492

Question: And the signal at 492 nm [50]?
Answer: 0.16 A492

Question: What about the signal at 492 nm [51] of the same substance?
Answer: 1.55 A492

Question: And the signal at 492 nm [52]?
Answer: 1.54 A492
